Assays:
[1] = molecular target: FLAG-T. castaneum methoprene-tolerant (T. castaneum); experiment: native MS; purified methoprene-bound complex exchanged into 200 mM ammonium acetate pH 7.4, nano-ESI, Synapt G2Si
[2] = molecular target: FLAG-T. castaneum methoprene-tolerant (T. castaneum); experiment: SEC-MALS; purified complex loaded at ~5 mg/ml, Superdex 200 10/300, 50 mM Tris, 350 mM NaCl, 10 uM methoprene, 2 mM MgCl2, 100 uM TCEP, pH 8.0; peak fractions checked by SDS-PAGE

His6-Tribolium castaneum taiman (TcTAI) (domain or fragment)
stoichiometry N [1]: 1 | stoichiometry N [2]: 1
